Assay [1] addresses IgG. The assay can be described thus: SPR, Biacore 4000; IgG amine-coupled to CM5 chip, C domain construct as analyte. In general terms: Surface plasmon resonance follows binding to a sensor surface in real time, without labels.
The target in assay [2] is IgG. The assay can be described thus: column chromatography, ligand coupled to agarose, IgG loaded at 1 mg/ml, before alkali treatment.

What is called pKd is −log10 of the Kd, conventionally taken in molar units. A higher pKd goes with a small Kd.

pKd: −log10 of the molar value.

(Native C-domain) 4 had a pKd in assay [1] of 8.14. Besides, the Initial IgG capability (dynamic binding capacity at 10% breakthrough) in assay [2] stood at 165 mg/mL.
